Experimental data reported in patent publication US8329178B2, “Antibodies against CXCR4 and methods of use thereof” (Dana-Farber Cancer Institute, Inc., dated 2012).

B1: 33-IgG1 (antibody, V domains shown)
VH: QVTLKESGGGVVQPGRSLRLSCAASGFTFTNYGLHWVRQAPGKGLEWVAVISHDGTKKYYADSVKGRFTISRDSSENTLYLQMNSLRPEDSALYYCARDGGYCSGGRCYSYGMDVWGQGTTVTVSS
VL: QSVLTQPPSASGTPGQRVTISCSGSRSNIGSNTVNWYQQLPGTAPKLLIYTNNQRPSGVPDRFSGSKSGTSASLAITGLQAEDEADYYCLSFDSSLTSYVFGTGTKVTVLG
B2: 48-IgG1 (antibody, V domains shown)
VH: QVQLVQSGGGVVLPGRSLRLSCVASGFTFRRYGMHWVRQAPGKGLEWVSLISYDGSKTFYGESVKGRFTISRDNSKNTLYLQMNSLRAEDTAVYYCARATVTTDGYYYMDVWGKGTTVTVSS
VL: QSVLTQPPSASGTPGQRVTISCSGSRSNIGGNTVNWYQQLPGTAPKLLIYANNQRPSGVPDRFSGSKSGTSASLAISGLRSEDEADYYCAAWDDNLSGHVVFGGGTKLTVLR

Biological target: CXCR2/CXCR4 chimera 4442 (human, UniProt P61073)
Test: FACS, 293T cells expressing CXCR4 variants

Row | Binder | binding to cells expressing the variant (+%) [%]
1 | B1 | 99.5
2 | B2 | 91.9
